These results are taken from publication PMC10478803, “Contributions of the N-terminal flanking residues of an antigenic peptide from the Japanese cedar pollen allergen Cry j 1 to the T-cell activation by HLA-DP5” (International Immunology, 2023).

Entries after “also recorded” stand apart in the source; their conditions may differ.

The subject of assay [1] is HLA-DP5 expressed on mDC1 cells. The assay can be described thus: Cell-surface peptide-display assay on HLA-DP5-expressing mDC1 cells. The conditions noted are these: 3.5 h at 37°C.
Experimental: (§1) The DPA1-stable cells were established by the transduction of mouse antigen-presenting dendritic cell line 1 (mDC1) cells with a retrovirus containing pMXs-Puro/DPA1 and selection with puromycin (5 μg ml^−1). The DPA1-stable cells were subsequently transduced with pMXs-IB/DPB1 and selected with blasticidin (5 μg ml^−1), to obtain DPA1- and DPB1-stable cells. […] The cell-surface expression levels of HLA-DP were analyzed with an EPICS-XL (Beckman Coulter) or BD FACSCalibur (BD Biosciences) flow cytometer. HLA-DP was stained with anti-HLA-DP (B7/21) (Leinco Technologies), and mouse IgG3 (6A3) (MBL), as the isotype control, was stained with phycoerythrin-conjugated anti-mouse IgG3 (Santa Cruz Biotechnology). mDC1 cells with certain uniform levels of HLA-DP5 expression were collected and used for the quantitative assays of cell-surface peptide-display and IL-2 production. […]
(§2) The parent mDC1 cells without HLA-DP5 expression (HLA-DP5[−]), and the HLA-DP5-expressing mDC1 cells, HLA-DP5[WT], were diluted with DMEM to 1.0 × 10^6 cells ml^−1. […] Thereafter, the cells were stained with Hoechst 33342 (diluted 1: 1000, at 4°C) (Thermo Fisher Scientific), and analyzed by a flow cytometer (BD LSRFortessa X-20, BD Biosciences) for the fluorescent intensity in the whole cell (TAMRA, excited at 561 nm) and that on the cell surface (Alexa647, excited at 640 nm). […]
For assay [2], the system named is mDC1 cells (mouse antigen-presenting dendritic cell line 1). The assay can be described thus: Uptake of TAMRA-labeled NF-pCj1 into mDC1 cells. As to conditions: TAMRA MFI, 0.25–4 μM, 3.5 h at 37°C, flow cytometry. (In flow cytometry, cells or beads pass a laser one at a time.)
Experimental: as §1, §2
For a further assay, the system named is CD4^+ T cells. Briefly: CFSE assay of CD4^+ T-cell proliferation in PBMCs of HLA-DP5^+ CP patients. The conditions noted are these: PBMCs from HLA-DP5^+ CP patients. The class given is cell-based, human. Here is the method: Peripheral blood was obtained from HLA-DP5^+ CP patients. Peripheral blood mononuclear cells (PBMCs) were isolated by a density gradient technique, using Ficoll-Paque PLUS. The research protocol for collecting and using PBMCs from allergic patients was approved by the Institutional Review Board of Kyushu University.
The CFSE assay was performed as described previously ([24]). Briefly, PBMCs (1.0 × 10^7 cells ml^−1 in PBS) were incubated for 10 min with 5 μM CFSE (Molecular Probes). Staining was terminated by adding PBS containing 5% pooled human serum, and after the cells were washed three times in PBS containing 1% pooled human serum, they were resuspended in culture medium (RPMI-1640 containing 5% pooled human serum) at 2.0 × 10^6 cells ml^−1. Stained cells (2.0 × 10^6 cells well^−1, 1 ml) were cultured in 24-well plates with medium alone, pCj1 (final concentration, 10 μg ml^−1), or NF-pCj1 (10 μg ml^−1). After 7 days, the cells treated with each antigen were pooled, washed in PBS, and stained with anti-human CD4-allophycocyanin (IgG1, clone RPA-T4, BioLegend) and 7-amino-actinomycin D (7-AAD) (BD Pharmingen). Antigen-specific, viable CD4^+ T cells were identified as 7AAD^−, CD4^+, CFSE^dim cells, and the proliferation levels of these antigen-specific CD4^+ T cells were examined in each experiment.

In assay [3] the test system is TCR(SU3–3)-TG40 and TCR(NM-4)-TG40 cells. Briefly: IL-2 production assay with HLA-DP5-expressing mDC1 cells. The conditions noted are these: vs WT NF-pCj1; HLA-DP5-mDC1s, 18 h, ELISA. (In general: An ELISA detects its analyte on a solid surface through an enzyme-linked reagent.)
Experimental: The DPA1-stable cells were established by the transduction of mouse antigen-presenting dendritic cell line 1 (mDC1) cells with a retrovirus containing pMXs-Puro/DPA1 and selection with puromycin (5 μg ml^−1). The DPA1-stable cells were subsequently transduced with pMXs-IB/DPB1 and selected with blasticidin (5 μg ml^−1), to obtain DPA1- and DPB1-stable cells. […] The cell-surface expression levels of HLA-DP were analyzed with an EPICS-XL (Beckman Coulter) or BD FACSCalibur (BD Biosciences) flow cytometer. HLA-DP was stained with anti-HLA-DP (B7/21) (Leinco Technologies), and mouse IgG3 (6A3) (MBL), as the isotype control, was stained with phycoerythrin-conjugated anti-mouse IgG3 (Santa Cruz Biotechnology). mDC1 cells with certain uniform levels of HLA-DP5 expression were collected and used for the quantitative assays of cell-surface peptide-display and IL-2 production.
Human CD4^+ TG40 cells were infected with the recombinant retroviruses by using retronectin (Takara Bio), according to the manufacturer’s instructions.
HLA-DP5-expressing mDC1 cells (5.0 × 10^3 cells per well) were cultured with NF-pCj1 for 3 h in 96-well flat-bottom plates.
T-cell response to NF-pCj1 presented by mDC1s.
For assay [4], the target named is NF-pCj1–HLA-DP5^ec (HLA-DP5α protein and NF-pCj1–HLA-DP5β fusion protein, extracellular regions) (human | Cryptomeria japonica) (UniProt P18632). Briefly: SPR. (In general: Surface plasmon resonance follows binding to a sensor surface in real time, without labels.)
The target of assay [5] is pCj1–HLA-DP5^ec (extracellular regions of HLA-DP5 with the nine-residue core peptide pCj1 fused to the β chain) (human | Cryptomeria japonica) (UniProt P18632). The assay can be described thus: SPR.
The target in assay [6] is T1, Cry j 1 (NF-pCj1, NF[WT]-pCj1) peptide on HLA-DPA1*02:02 / HLA-DPB1*05:01 (human).
T1 peptide: DKSMKVTVAFNQF
The assay can be described thus: Kd or kinetics.

For assay [7], the target named is T1, Cry j 1 (NF-pCj1, NF[WT]-pCj1) peptide …. Briefly: cytokine release.
Assay [8] concerns the target T2, Cry j 1 (pCj1) peptide on HLA-DPA1*02:02 / HLA-DPB1*05:01 (human).
T2 peptide: KVTVAFNQF
Briefly: activation reporter or marker.

Assay [9] has as its target T2, Cry j 1 (pCj1) peptide on …. The assay can be described thus: cytokine release.

On to DEEMKVTVAFNQF-GPN-EG2-TAMRA, for which, in [1] (1 μM, same peptide dose and HLA-DP5 surface expression, Alexa647 MFI), the “effect of NF mutations on amount of cell-surface displayed peptide (in words)” value is listed as “halved the amounts of the cell-surface displayed peptide”.

With “DKSMKVTVAFNQF-GPN-EG2-TAMRA [NF-pCj1–TAMRA]”, the “uptake versus concentration in the medium (in words)” value in [2] is listed as “proportional to its concentration in the medium”. The “amount of surface-displayed peptide per cell versus concentration (in words)” value in [1] (Alexa 647-labeled anti-TAMRA antibody MFI, 0.25–4 μM) was “nearly proportional to the peptide concentration in the range of 0.25–4 μM”. Consider KVTVAFNQF [pCj1], for which, in the assay with CD4^+ T cells, the “CD4^+ T-cell proliferation and clone establishment (in words)” value is recorded as “some proliferation; also recorded: it was impossible to maintain the cell growth required to establish HLA-DP5-restricted CD4^+ T-cell clones”. On to “NF[S(P–2)E/K(P–3)E]-pCj1: double mutation of Ser(–2) and Lys(–3) to Glu in a 13-residue Cry j 1 peptide (NF-pCj1) (DEEMKVTVAFNQF)”, for which the “effect of NF mutation on T-cell activation / IL-2 production (in words)” value in assay [3] is on record as “dramatically reduced”.

In the case of “TCR(SU3–3)^ec αβ molecule (extracellular regions of the TCR(SU3–3) α chain, residues 1–209, and β chain, residues 1–245, with an artificial interchain disulfide bond) (from UniProt A0A0A6YYJ7)”, the Kd (usually a measure of binding affinity in units of concentration) came out at 92.5 µM in assay [4] and 90.1 µM in assay [5].

B1: TCR(SU3–3) (TCR)
alpha TRAV8-3*01 TRAJ34*01 CDR3: CAVAPTYNTDKLIF
beta TRBV7-9*03 TRBJ2-2*01 CDR3: CASSSKGGAGELFF
For the molecule B1, the binding result in [6] is reported as “recognises”.

B2: TCR(NM-7) (TCR)
alpha TRAV12-3*01 TRAJ27*01 CDR3: CGANAGKSTF
beta TRBV30*01 TRBJ2-7*01 CDR3: CAWSVMVWGSEGEQYF
On to B2, for which the figures for the binding result in assay [7] and in [8] were “recognises” and “no recognition”, respectively.

B3: TCR(NM-4) (TCR)
alpha TRAV16*01 TRAJ48*01 CDR3: CALRSNFGNEKLTF
beta TRBV5-1*01 TRBJ2-2*01 CDR3: CASSLVVAGVYTGELFF
For B3, the binding result in assay [7] is listed as “recognises”; in assay [9], “no recognition”.
